Results published in US20040072319A1, “Molecules that modulate ubiquintin-dependent proteolysis and methods for identifying same” (priority 2003, published 2004).
Residue numbers refer to the chain shown, from its start. Square brackets hold non-standard residues; d marks the D form. Ends that are not written are not given here. Peptide text beside a SMILES is read from it. pY = N[C@@H](Cc1ccc(OP(=O)(O)O)cc1)C(=O)O; pT = C[C@@H](OP(=O)(O)O)[C@H](N)C(=O)O; pS = N[C@@H](COP(=O)(O)O)C(=O)O

T1: Cdc4 (yeast F-box protein, recombinant, expressed in baculovirus-infected insect cells) (yeast, UniProt P07834 1-779)
T1 construct: also called Cdc4^FLAG
T1 sequence (looked up): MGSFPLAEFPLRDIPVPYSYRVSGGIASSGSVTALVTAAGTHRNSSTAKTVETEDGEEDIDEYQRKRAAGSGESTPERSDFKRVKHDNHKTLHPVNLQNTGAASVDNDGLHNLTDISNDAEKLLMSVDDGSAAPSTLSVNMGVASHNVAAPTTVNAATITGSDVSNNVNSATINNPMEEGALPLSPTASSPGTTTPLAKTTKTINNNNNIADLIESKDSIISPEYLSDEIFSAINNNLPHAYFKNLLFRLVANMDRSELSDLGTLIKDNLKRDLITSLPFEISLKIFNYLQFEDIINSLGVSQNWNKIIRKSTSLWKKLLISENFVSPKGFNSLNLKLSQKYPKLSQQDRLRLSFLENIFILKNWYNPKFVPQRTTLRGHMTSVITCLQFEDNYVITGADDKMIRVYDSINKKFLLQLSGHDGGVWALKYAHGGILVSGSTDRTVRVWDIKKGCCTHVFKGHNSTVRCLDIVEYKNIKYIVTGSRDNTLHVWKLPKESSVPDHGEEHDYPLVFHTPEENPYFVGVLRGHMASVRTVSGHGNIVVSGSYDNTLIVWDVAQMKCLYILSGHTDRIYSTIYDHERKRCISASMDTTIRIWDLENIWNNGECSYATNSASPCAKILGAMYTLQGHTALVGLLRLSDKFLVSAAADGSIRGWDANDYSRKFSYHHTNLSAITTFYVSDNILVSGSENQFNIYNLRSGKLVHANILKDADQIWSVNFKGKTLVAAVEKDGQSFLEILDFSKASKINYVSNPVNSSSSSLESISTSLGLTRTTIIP

B1: Sic1 6m (Sic1^9m with T33, T45 and S76 restored), Gst fusion (other, yeast, UniProt P38634 1-284, looked up)
chain: MAPSAPPRSRGTRYLAQPSGNTSSSALMQGQKTPQKPSQNLVPVTPSTTKSFKNAPLLAPPNSNMGMTAPFNGLTSPQRAPFPKSSVKRTLFQFESHDNGTVREEQEPLGRVNRILFPTQQNVDIDAAEEEEEGEVLLPPSRPTSARQLHLSLERDEFDQTHRKKIIKDVPGAPSDKVITFELAKNWNNNVPKNDARSQESEDEEDIIINPVRVGKNPFASDELVTQEIRNERKRAMLRENPDIEDVITYVNKKGEVVEKRRLTDEEKRRFKPKALFQSRDQEH
modifications: treated with Cln2-Cdc28 kinase
notes: not shown: glutathione S-transferase (Gst) fusion moiety of pGEX-3x
B2: Sic1 7m (Sic1^9m with T45 and S76 restored), Gst fusion (other, yeast, UniProt P38634 1-284, looked up)
chain: B1 chain with T33A
modifications: treated with Cln2-Cdc28 kinase
notes: as for B1
B3: SicpT45 peptide VPVpTPSTTK (peptide)
peptide: VPV[pT]PSTTK
notes: also called Sic1 pT45 phosphopeptide; Sic1 15-pT45 peptide

Tests used:
Cdc4 = Cdc4 (Saccharomyces cerevisiae, UniProt P07834); test: Fluorescence polarization equilibrium binding of peptides to Cdc4; parameters: made in house; host or cells: Cdc4: baculovirus-infected insect (Sf9) cells; Gst-Skp1: E. coli BL21 codon plus; species or system yeast
Protocol: Equilibrium binding constant determination was carried out using fluorescence polarization on a Beacon 2000 Fluorescence Polarization System (Pan Vera, Wis.) equipped with a 100 μL sample chamber. Fluorescein-labeled probes were prepared through the reaction of carboxyterminal-peptides with 5-(and-6)-carboxyfluorescein succinimidyl ester (Molecular Probes), purified by reverse-phase HPLC, and confirmed by mass spectrometry. Binding studies were conducted with 5 nM fluorescein-labeled probe dissolved in PBS containing 100 μg/ml BSA and 1 mM dithiothreitol. Reaction mixtures were allowed to equilibrate for 10 minutes at room temperature prior to each measurement. All fluorescence polarization measurements were conducted at 22° C.

Skp1-Cdc4 complex [1] = target: T2, Skp1-Cdc4 complex (yeast, UniProt P07834 1-779; P52286 1-194, limits assumed); test: fluorescence polarization, 5 nM fluorescein-labeled peptide, Cdc4/Skp1 titrated
T2 construct: Purified complex (Gst removed by TEV, size exclusion) for fluorescence polarization and SPOTS arrays; also called Cdc4/Skp1; cdc4/skp1 complex
T2 sequence (P52286 whole entry, chain 2 of 2, one chain of several): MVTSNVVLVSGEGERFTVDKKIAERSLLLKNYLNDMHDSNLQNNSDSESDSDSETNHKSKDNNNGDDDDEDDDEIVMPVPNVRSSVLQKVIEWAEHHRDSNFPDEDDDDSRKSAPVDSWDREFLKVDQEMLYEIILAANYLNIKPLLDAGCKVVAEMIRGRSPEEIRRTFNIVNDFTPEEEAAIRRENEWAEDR

Cdc4-Skp1 complexes = target: T3, Cdc4-Skp1 complexes (Saccharomyces cerevisiae, UniProt P07834); test: Peptide out-competition of phosphorylated substrates binding to Cdc4-Skp1; parameters: species or system yeast; details: peptide 3, 17, 68 μM in FIG. 6f
T3 construct: made in house; host or cells: insect cells (baculovirus)
T3 sequence (P52286 whole entry partner, one chain of several): as the sequence (P52286 whole entry, chain 2 of 2, one chain of several) above
Source text: SCF complexes were purified from SF9 cells infected with recombinant baculoviruses and used in binding assays and ubiquitination reactions essentially as described (7). Gst-Skp1 expressed in BL21 codon plus cells (Stratagene) then purified on glutathione resin was used to capture full Cdc4 from insect cell lysates. Truncated forms of Cdc4 were enriched prior to Gst-Skp1 capture by affinity purification of hexahistidine fusion proteins on a metal chelate column. The Skp1-Cdc4 complexes were released from the Gst moiety by cleavage with TEV protease and further purified by size exclusion chromatography on a Superdex S75 or S200 column. Biotin labeled […]p[…] (SEQ ID NO. 1), […] (SEQ ID NO. 12), and APPLSQEpTFSDLWK (SEQ ID NO. 13) were synthesized by addition of d-biotin (Sigma) with an Fmoc-e-aminocaproic acid (Bachem) spacer to carboxy-terminal peptides. […] Streptavidin-agarose beads (Sigma) were incubated in the presence of biotinylated peptide for 90 min. at 4° C. Beads were washed 3 times and then incubated with lysates from Cdc4 expressing baculovirus infected Sf9 cells. Beads were washed 4 times, after which SDS-PAGE gel loading buffer was added and the beads were boiled for 5 min. Proteins were separated by SDS-PAGE and visualized by silver stain. Peptide out-competition of phosphorylated substrates was carried out with immunopurified Skp1^FLAG-Cdc4 from insect cells, which were incubated with phosphopeptides prior to addition of phospho-Sic1 or phospho-Cyclin E-Cdk2. For kinase inhibition assays, purified recombinant Clb5-Cdc28 complex (30 ng) was incubated with mutant forms of Sic1 (40 ng) and histone H1 (HH1, 2 μg) for 1 h on ice prior to addition of [^32P]-γ-ATP and incubation at 25° C. for 30 min. Samples were separated by SDS-PAGE and visualized by autoradiography.

Skp1-Cdc4 complex [2] = target: T2, Skp1-Cdc4 complex; test: fluorescence polarization
Protocol: Equilibrium binding constant determination was carried out using fluorescence polarization on a Beacon 2000 Fluorescence Polarization System (Pan Vera, Wis.) equipped with a 100 μL sample chamber. […] Binding studies were conducted with 5 nM fluorescein-labeled probe dissolved in PBS containing 100 μg/ml BSA and 1 mM dithiothreitol. Reaction mixtures were allowed to equilibrate for 10 minutes at room temperature prior to each measurement. All fluorescence polarization measurements were conducted at 22° C.
The requirement for phosphorylation on threonine, as opposed to serine or tyrosine residues was also investigated.

[3] = target: T1, Cdc4 (yeast F-box protein, recombinant, …); test: capture of Gst-Sic1 on Cdc4^FLAG resin, anti-Sic1 blot

Row | Molecule | binding result (Skp1-Cdc4 complex [2]) | further results
1 | CC(C)C[C@H](NC(=O)CNC(=O)c1ccc2c(c1)C(=O)OC21c2ccc(O)cc2Oc2cc(O)ccc21)C(=O)N[C@@H](CC(C)C)C(=O)N[C@@H](COP(=O)(O)O)C(=O)N1CCC[C@H]1C(=O)N1CCC[C@H]1C(=O)N[C@@H](CCC(N)=O)C(=O)N[C@@H](CO)C(=O)NCC(=O)O [CycEpS-9mer, GLLpSPPQSG] (HELM PEPTIDE1{[O=C1OC2(c3ccc(O)cc3Oc3cc(O)ccc32)c2ccc(C(=O)[*:2])cc21].G.L.L.[O=C([C@H](COP(=O)(O)O)N[*:1])[*:2]].P.P.Q.S.G}$$$$V2.0) |  | Kd (Cdc4; dissociation constant Kd for Cdc4): 6 µM
2 | CycEK3-9mer GLLpTPPKSG (peptide) |  | Kd (Skp1-Cdc4 complex [1]): 5.1 µM
3 | VPVpTPSTTK (VPV[pT]PSTTK) [SicpT45] |  | binding to Cdc4 (in words) (Cdc4): could neither bind stably to Cdc4; competition with substrates (Sic1, cyclin E1, Far1) for binding to Cdc4 (Cdc4-Skp1 complexes): nor block the interaction
4 | PKPLNLSKPI[pS]PPPSLKKTA [Far 1 pS87 peptide PKPLNLSKPIpSPPPSLKKTA] | no binding (tested: up to [Cdc4/Skp1] of 10 µM) | 
5 | B1 |  | binding result [3]: no binding
6 | B2 |  | binding result [3]: no binding
7 | VEQ[pT]PKKPG [p27pT187 peptide VEQpTPKKPG] | no binding (tested: up to [Cdc4/Skp1] of 10 µM) | 
8 | B3 | no binding (tested: up to [Cdc4/Skp1] of 10 µM) | 
9 | NVQ[pT]PTLMA (also called Pcl2) [Pc12 peptide NVQpTPTLMA] | no binding (tested: up to [Cdc4/Skp1] of 10 µM) | 
10 | GLL[pT]APQSG [CycEA1-9mer GLLpTAPQSG] | no binding (tested: up to [Cdc4/Skp1] of 10 µM) | 
11 | GLL[pY]PPQSG (also called CycE19-pY380) [CycEpY-9mer GLLpYPPQSG] | no binding (tested: up to [Cdc4/Skp1] of 10 µM) | 
